# “And” between values parts separate entries of the source, which are not always exact repeats. Equal values may be shown once.
# Conditions: Desulfovibrio desulfuricans (strain ATCC 27774 / DSM 6949 / MB), pH 7, 20 °C, GdnHCl, sodium phosphate 5 mM, reversible: yes, whole UniProt chain shown
protein,measurement,setting,value
"Desulfoferrodoxin wild type, P22076 (protein) MPKHLEVYKCTHCGNIVEVLHGGGAELVCCGEPMKHMVEGSTDGAMEKHVPVIEKVDGGYLIKVGSVPHPMEEKHWIEWIELLADGRSYTKFLKPGDAPEAFFAIDASKVTAREYCNLHGHWKAEN",denaturant midpoint (higher = more stable),"CD, transition: 3",4.9 M and 5.1 M
same,unfolding free energy,"CD, transition: 3",11.3 kcal/mol and 12 kcal/mol
same,denaturant midpoint (higher = more stable),Fluorescence,2.3 M
same,unfolding free energy,Fluorescence,11.3 kcal/mol
same,denaturant midpoint (higher = more stable),"Fluorescence, transition: 3",1.7 M and 2.2 M and 2.9 M
same,unfolding free energy,"Fluorescence, transition: 3",10.6 kcal/mol and 10.9 kcal/mol
